Measurements from paper PMC8881573, “Inhibition of SRP-dependent protein secretion by the bacterial alarmone (p)ppGpp” (Nature Communications, 2022).

Target: ribosomal protein uL29 (B. subtilis (endogenous in the B. …, UniProt P12873 1-66))
Assay: cryo-EM structure; (Bs)SRP pre-incubated with pppGpp, tenfold molar excess over MifM-stalled RNCs, 10 min at room temperature
Settings: both partners purified

B1: recombinant (Bs)SRP (Ffh and 6S RNA) (natural protein)
chain: MAFEGLADRLQQTISKIRGKGKVSEQDVKEMMREVRLALLEADVNFKVVKDFVKKVSERAVGQDVMKSLTPGQQVIKVVQEELTELMGGEESKIAVAKRPPTVIMMVGLQGAGKTTTSGKLANLLRKKHNRKPMLVAADIYRPAAIKQLETLGKQLDMPVFSLGDQVSPVEIAKQAIEKAKEEHYDYVILDTAGRLHIDHELMDELTNVKEIANPEEIFLVVDSMTGQDAVNVAKSFNEQLGLTGVVLTKLDGDTRGGAALSIRAVTNTPIKFAGLGEKLDALEPFHPERMASRILGMGDVLTLIEKAQASVDEDKAKELEQKMRTMSFTLDDFLEQLGQVRNMGPLDELLQMMPGAGKMKGLKNIQVDEKQLNHVEAIIKSMTVLEKEQPDIINASRRKRIAKGSGTSVQEVNRLLKQFDEMKKMMKQMTNMSKGKKKGFKLPFM
notes: Ffh, B. subtilis, full length; Ribonucleoprotein: the protein stood with the 6S SRP RNA and with pppGpp or GMPPNP; also called full-length (Bs)Ffh; not shown: 6xHis, N-terminal, cleaved
Does B1 bind?
Result: binds
